We go through 5 substances from article PMC4013067.

The conditions of the data set: N-glycosylation at N138.

As for “nicotinic acetylcholine receptor β4 subunit: M467V+S140G, co-expressed with α3”, the localisation_or_trafficking entry was “decreases, relative surface ELISA 0.17±0.02 vs 1.00 (WT), P<0.001”. Turning to “nicotinic acetylcholine receptor β4 subunit: S140G (sequon disruption), co-expressed with α3”, the expression_or_secretion entry is listed as “no change” and the localisation_or_trafficking entry is recorded as “abolishes, relative surface ELISA −0.04±0.05 vs 1.00 (WT), P<0.001”.

On to “nicotinic acetylcholine receptor β4 subunit: S140G (sequon disruption), co-expressed with α3: nicotine EC50”, for which the other entry is on record as “changes, nicotine EC50 22±4 µM (WT) to 48±4 µM, P<0.05; ACh EC50 not significantly changed”.

Turning to “nicotinic acetylcholine receptor β4 subunit: S140G (sequon disruption), co-expressed with α4”, the localisation_or_trafficking result is on record as “abolishes, relative surface ELISA −0.13±0.22 vs 1.00 (WT), P<0.001”. Consider “nicotinic acetylcholine receptor β4 subunit: S140G (sequon disruption), co-expressed with α4: ACh and nicotine EC50”, for which the other entry is “changes, ACh EC50 9.36±1.35 to 16.7±2.1 µM (P<0.01); nicotine EC50 1.48±0.17 to 2.75±0.27 µM (P<0.01); sag to ACh 0.90 to 0.76 (P”.
